Kd and stoichiometry N data for one substance are collected here from article PMC4434759.

The assay has as its target PsIAA4 PB1^AM3 (D151A/D153A/D155A) (pea (Pisum sativum)). The experiment in a line: ITC.

Substance “PsIAA4 PB1^BM3 (K96A/R106A/K107A) (domain or fragment)” came in with a Kd of 6.4 µM and a stoichiometry N of 1.
